We go through two molecules from paper PMC10620413, “Dimeric Transmembrane Structure of the SARS-CoV-2 E Protein” (Communications Biology, 2023).

In general, stoichiometry N refers to a count of units in the complex or per binding partner.

The target in series [1] is SARS-CoV-2 E protein transmembrane domain E_(12–37) (SARS-CoV-2 (isolate Wuhan-Hu-1)). The experiment in a line: SDS-PAGE.
Series [2] deals with the molecule itself. The series can be described thus: SDS-PAGE.

Molecule “SARS-CoV-2 E protein transmembrane domain E_(12–37) (domain or fragment)” gave a stoichiometry N in series [1] of 2. As to SNAETGTLIVNSVLLFLAFVVFLLVTLAILTALRLSA (domain or fragment, not shown: MBP, N-terminal, cleaved) [SARS-CoV-2 E protein fragment E_(8–41)], the “stoichiometry N” value in series [2] was 2.
